What all share (test): SEC-MALS
Background: Size exclusion chromatography separates by hydrodynamic size, large species first.

Assay [1] deals with His-tagged NcKar9N-αβ• (γ-interface mutant, Tyr363Ala/Arg364Ala) (Naumovozyma castellii).
The target is the same in assay [2]. The source holds these as a separate data set.
In assay [3] the target is His-tagged NcKar9N-α•γ (β-interface mutant, Arg233Ala/Ile237Ala) (Naumovozyma castellii).
The target is the same in assay [4]. The source holds these as a separate data set.
In assay [5] the target is His-tagged N. castellii Kar9 N-terminal domain, wild type (NcKar9N-αβγ) (Naumovozyma castellii).

Read-outs that look alike come from different tables or passages of the source. A value given as a limit tells only on which side of the number the result lay.

As a reminder, the stoichiometry N is the number of molecules, sites or subunits per partner or assembly. Regarding “His-tagged NcKar9N-αβ• (γ-interface mutant, Tyr363Ala/Arg364Ala) (domain or fragment)”, the stoichiometry N in assay [1] and in assay [2] was < 4 throughout. As for “His-tagged NcKar9N-α•γ (β-interface mutant, Arg233Ala/Ile237Ala) (domain or fragment)”, the stoichiometry N in assay [3] and in assay [4] was 2 in each case.

In assay [5], “His-tagged N. castellii Kar9 N-terminal domain, wild type (NcKar9N-αβγ) (domain or fragment)” showed a stoichiometry N of 2.
